From PMC2275666 (The EMBO Journal, 2008)

Assays:
Assay in all cases: pull-down
6H–hTFIIEα V372A = target: T1, 6H–hTFIIEα V372A (human, UniProt P29083 1-439, V372A)
T1 sequence: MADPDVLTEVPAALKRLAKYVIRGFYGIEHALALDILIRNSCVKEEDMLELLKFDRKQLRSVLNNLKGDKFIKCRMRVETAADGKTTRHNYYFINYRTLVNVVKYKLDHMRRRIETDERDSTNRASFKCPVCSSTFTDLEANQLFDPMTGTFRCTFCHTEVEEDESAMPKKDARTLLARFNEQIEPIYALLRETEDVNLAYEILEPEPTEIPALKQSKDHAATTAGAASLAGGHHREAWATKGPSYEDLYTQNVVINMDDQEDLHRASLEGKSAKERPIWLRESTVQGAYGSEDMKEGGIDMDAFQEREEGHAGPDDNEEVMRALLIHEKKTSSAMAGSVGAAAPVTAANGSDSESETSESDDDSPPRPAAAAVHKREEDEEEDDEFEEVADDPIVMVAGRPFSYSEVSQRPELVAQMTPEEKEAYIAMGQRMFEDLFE

6H–hTFIIEα E383A = target: T2, 6H–hTFIIEα E383A (human, UniProt P29083 1-439, E383A)
T2 sequence: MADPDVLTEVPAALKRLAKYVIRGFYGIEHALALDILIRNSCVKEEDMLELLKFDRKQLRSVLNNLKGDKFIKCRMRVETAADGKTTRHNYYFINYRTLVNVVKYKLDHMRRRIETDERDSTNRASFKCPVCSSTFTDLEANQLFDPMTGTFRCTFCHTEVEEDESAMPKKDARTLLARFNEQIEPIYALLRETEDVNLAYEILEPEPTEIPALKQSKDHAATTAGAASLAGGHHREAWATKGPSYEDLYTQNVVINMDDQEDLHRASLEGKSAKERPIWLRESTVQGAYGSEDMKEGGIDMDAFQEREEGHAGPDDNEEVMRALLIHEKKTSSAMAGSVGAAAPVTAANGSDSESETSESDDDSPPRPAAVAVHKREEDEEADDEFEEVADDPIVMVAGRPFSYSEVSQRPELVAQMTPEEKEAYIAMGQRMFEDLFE

6H–hTFIIEα D393A = target: T3, 6H–hTFIIEα D393A (human, UniProt P29083 1-439, D393A)
T3 sequence: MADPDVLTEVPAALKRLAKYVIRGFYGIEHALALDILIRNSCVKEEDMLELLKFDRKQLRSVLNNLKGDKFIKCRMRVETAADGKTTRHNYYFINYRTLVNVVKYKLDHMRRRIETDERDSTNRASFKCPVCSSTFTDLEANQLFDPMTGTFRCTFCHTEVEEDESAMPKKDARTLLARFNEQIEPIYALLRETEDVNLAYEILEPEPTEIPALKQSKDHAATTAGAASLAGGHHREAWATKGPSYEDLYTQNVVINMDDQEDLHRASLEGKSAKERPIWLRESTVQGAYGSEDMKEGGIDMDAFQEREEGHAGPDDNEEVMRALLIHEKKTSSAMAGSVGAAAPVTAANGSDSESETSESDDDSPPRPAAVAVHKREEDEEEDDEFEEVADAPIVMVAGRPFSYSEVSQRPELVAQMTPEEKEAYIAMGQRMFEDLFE

6H–hTFIIEα D380A = target: T4, 6H–hTFIIEα D380A (human, UniProt P29083 1-439, D380A)
T4 sequence: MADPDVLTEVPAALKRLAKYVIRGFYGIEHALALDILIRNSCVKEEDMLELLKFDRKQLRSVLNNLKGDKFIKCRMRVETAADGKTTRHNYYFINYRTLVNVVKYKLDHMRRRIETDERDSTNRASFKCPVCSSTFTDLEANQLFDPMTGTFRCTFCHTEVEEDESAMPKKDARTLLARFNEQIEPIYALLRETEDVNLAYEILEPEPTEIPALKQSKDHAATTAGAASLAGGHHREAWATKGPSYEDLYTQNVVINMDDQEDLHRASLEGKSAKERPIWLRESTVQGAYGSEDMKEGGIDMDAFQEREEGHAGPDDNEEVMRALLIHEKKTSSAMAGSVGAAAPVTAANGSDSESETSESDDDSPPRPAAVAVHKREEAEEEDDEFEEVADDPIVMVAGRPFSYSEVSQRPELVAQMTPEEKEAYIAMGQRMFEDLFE

[1] = target: T5, 6H–hTFIIEα wild type (full-length hTFIIEα) (human, UniProt P29083 1-439)
T5 sequence: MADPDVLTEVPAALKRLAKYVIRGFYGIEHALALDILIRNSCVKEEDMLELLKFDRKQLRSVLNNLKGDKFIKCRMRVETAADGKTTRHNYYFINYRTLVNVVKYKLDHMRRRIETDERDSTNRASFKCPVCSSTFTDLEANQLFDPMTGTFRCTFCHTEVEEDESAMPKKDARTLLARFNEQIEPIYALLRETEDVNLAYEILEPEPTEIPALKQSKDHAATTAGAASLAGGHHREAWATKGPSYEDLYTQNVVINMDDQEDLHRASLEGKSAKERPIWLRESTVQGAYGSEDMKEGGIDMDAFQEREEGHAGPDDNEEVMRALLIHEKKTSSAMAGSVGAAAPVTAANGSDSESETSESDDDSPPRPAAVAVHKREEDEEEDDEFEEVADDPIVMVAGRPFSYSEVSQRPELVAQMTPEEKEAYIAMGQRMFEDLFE

Measured: binding result

B1: GST-tagged hTFIIEβ (natural protein)
chain: MDPSLLRERELFKKRALSTPVVEKRSASSESSSSSSKKKKTKVEHGGSSGSKQNSDHSNGSFNLKALSGSSGYKFGVLAKIVNYMKTRHQRGDTHPLTLDEILDETQHLDIGLKQKQWLMTEALVNNPKIEVIDGKYAFKPKYNVRDKKALLRLLDQHDQRGLGGILLEDIEEALPNSQKAVKALGDQILFVNRPDKKKILFFNDKSCQFSVDEEFQKLWRSVTVDSMDEEKIEEYLKRQGISSMQESGPKKVAPIQRRKKPASQKKRRFKTHNEHLAGVLKDYSDITSSK
binds: all assays above
